Each block holds one binder with its values, some of them ahead of it.
Assays:
[1] = target: T1, human PTK7 on the surface of PTK7-expressing tumor cell lines (human, UniProt Q13308 31-1070); assay: flow cytometry on MDA-MB-468 cells, PE anti-human Fc detection, MFI(PE)
T1 construct: whole, on cells
T1 sequence (looked up): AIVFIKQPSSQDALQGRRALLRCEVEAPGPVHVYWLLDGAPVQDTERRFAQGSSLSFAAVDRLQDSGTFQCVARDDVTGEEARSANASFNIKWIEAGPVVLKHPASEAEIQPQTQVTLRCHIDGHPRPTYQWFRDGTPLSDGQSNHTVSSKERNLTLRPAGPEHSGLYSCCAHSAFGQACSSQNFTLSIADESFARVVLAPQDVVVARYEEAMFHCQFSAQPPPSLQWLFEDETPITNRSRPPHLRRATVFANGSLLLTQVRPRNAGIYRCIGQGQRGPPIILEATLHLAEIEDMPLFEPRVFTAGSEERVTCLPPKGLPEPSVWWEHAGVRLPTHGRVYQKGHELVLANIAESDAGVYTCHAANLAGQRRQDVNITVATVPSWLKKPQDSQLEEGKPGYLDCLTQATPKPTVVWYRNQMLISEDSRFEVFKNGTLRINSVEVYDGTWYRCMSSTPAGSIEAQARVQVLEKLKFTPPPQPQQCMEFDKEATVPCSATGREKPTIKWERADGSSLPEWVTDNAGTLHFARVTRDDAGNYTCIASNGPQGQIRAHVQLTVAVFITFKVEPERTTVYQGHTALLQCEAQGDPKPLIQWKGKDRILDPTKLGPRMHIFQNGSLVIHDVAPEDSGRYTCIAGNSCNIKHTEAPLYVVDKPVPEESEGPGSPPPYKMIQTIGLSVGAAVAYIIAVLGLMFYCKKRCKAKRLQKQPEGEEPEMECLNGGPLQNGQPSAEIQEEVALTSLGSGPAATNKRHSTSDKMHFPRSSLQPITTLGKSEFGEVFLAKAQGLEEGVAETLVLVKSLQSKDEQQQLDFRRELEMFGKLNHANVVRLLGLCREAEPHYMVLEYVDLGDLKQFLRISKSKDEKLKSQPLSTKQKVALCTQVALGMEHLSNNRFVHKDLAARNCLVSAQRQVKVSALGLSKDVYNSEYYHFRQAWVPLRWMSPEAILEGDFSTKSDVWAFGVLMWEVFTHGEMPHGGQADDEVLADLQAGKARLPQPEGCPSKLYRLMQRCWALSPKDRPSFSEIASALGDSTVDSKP

[2] = target: T2, rat PTK-7 recombinant protein (rat, UniProt A0A8I6ALM9 40-713); assay: ELISA, plate-coated rat PTK7 recombinant protein
T2 construct: also called rat PTK7 protein
Protocol: (§1) Binding specificity property was tested by ELISA according to a standard protocol. Specifically, 96-well micro-plates were coated with 2 μg/mL human, cynomolgus, mouse, and rat PTK-7 recombinant protein in PBS 100 μL per well, incubated overnight at 4° C. Plates were washed twice by TBS+0.5% Tween20. 200 μL of blocking buffer (2% BSA in PBS) was added to each well and incubated at 37° C. for 2 hours. Plates were washed using the buffer mentioned above. Serially diluted antibodies were added to the ELISA plate with 100 μL per well and incubated for 1 hour at room temperature. Then plates were washed for 3 times. After washing, HRP conjugated anti-human Fc antibody solution (abcam, ab98624, diluted with blocking buffer) was added to the plate with 100 μl per well. The plates were incubated at room temperature for 1 hour and then washed for 3 times. Then TMB solution was added to plates with 100 μl per well, placed at room temperature for 5-15 mins, then the stop solution (2M H₂SO₄) was added with 50 μl per well. Finally, the result was measured by absorbance at A₄₅₀ and A₆₃₀.

[3] = target: T1, human PTK7 on the surface of …; assay: flow cytometry on PA-1 cells, PE anti-human Fc detection, MFI(PE)
[4] = target: T3, human PTK-7 recombinant protein (human, UniProt Q13308 31-704, limits assumed); assay: ELISA, plate coated with 2 ug/mL human PTK-7 recombinant protein, HRP anti-human Fc detection, OD450
T3 construct: also called human PTK7 protein
T3 sequence (looked up): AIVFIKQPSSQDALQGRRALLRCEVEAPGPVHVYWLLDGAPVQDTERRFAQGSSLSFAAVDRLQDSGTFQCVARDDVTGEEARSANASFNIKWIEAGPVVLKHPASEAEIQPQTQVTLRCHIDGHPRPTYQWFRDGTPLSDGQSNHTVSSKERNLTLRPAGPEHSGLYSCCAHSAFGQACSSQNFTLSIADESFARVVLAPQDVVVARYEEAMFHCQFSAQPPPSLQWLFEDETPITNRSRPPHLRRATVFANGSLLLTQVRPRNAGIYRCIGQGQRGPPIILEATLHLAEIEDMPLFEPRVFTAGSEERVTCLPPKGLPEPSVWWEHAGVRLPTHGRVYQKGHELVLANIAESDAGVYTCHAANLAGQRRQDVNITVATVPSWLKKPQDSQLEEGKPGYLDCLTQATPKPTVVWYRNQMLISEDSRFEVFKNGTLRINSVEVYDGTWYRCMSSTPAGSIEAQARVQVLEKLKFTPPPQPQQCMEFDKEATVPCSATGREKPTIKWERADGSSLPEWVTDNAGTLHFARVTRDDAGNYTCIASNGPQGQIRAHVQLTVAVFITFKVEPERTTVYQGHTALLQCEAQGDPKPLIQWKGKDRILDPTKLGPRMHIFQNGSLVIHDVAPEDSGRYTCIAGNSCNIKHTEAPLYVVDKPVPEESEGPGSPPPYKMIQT
Protocol: as §1

[5] = target: T1, human PTK7 on the surface of …; assay: flow cytometry on MDA-MB-231 cells, PE anti-human Fc detection, MFI(PE)

EC50 [1]: 481 pM
binding result [2]: no binding
EC50 [3]: 562 pM
EC50 [4]: 31.7 pM
EC50 [5]: 423 pM
B1: humanized antibody 2C8 (antibody, V domains shown)
VH: QIQLVQSGAEVKKPGASVKVSCKASGYTFTTYGMSWVRQAPGQGLEWMGWINTHSGVPTYVDEFKGRVTMTLDTSTSTAYMELSSLRSEDTAVYYCARSPFDYGSRGAWFVYWGQGTTVTVSS
VL: DVVMTQSPDSLAVSLGERATINCRSSQSIVHNSGDTYLEWYQQKPGQPPKLLIYKVSNRFPGVPDRFSGSGSGTDFTLTISSLQAEDLAVYYCFQGSHVPWTFGGGTKVEIK
notes: Only variable regions are tied to 2C8 by name; It was detected with anti-human Fc

EC50 [1]: 558 pM
binding result [2]: no binding
EC50 [3]: 808 pM
EC50 [4]: 22.1 pM
EC50 [5]: 828 pM
B2: humanized antibody 13C4 (antibody, V domains shown)
VH: QVQLVESGGGLVKPGGSLRLSCAASGFAFSTYDMFWIRQAPGKGLEWVSTISSGGGYTYYPGSVKGRFTISRDNAKNSLYLQMNSLRAEDTAVYYCVRPLLRDSYFYFDVWGQGTMVTVSS
VL: EIVMTQSPATLSVSPGERATLSCRASSSVSSSYLHWYQQKPGQAPRLLIFRTSNLASGIPARFSGSGSGTEYTLTISSLQSEDAAVYYCQQYSGYPLTFGQGTKLEIK
notes: Only variable regions are tied to 13C4; It was detected with anti-human Fc

EC50 [1]: 543 pM
EC50 [3]: 711 pM
EC50 [4]: 26.7 pM
EC50 [5]: 506 pM
B3: humanized antibody 2C5 (antibody, V domains shown)
VH: QVQLVQSGAEVKKPGASVKVSCKASGYTFTDYYINWVRQAPGQGLEWMGDINPYSGGPVYNQKFMARVTMTVDKSINTAYMELSRLRSDDTAVYYCARGDYYGSNYNYWGQGTLVTVSS
VL: EIVLTQSPATLSVSPGERATLSCRASQNIGTSIHWYQQKPGQAPRLLIKFASESISGIPARFSGSGSGTEFTLTISSLQSEDIAVYYCQQSNNWPYTFGQGTKLEIK
notes: Only variable regions are tied to 2C5; It was detected with anti-human Fc, so it has a human Fc
